In patent US20100233802A1:

Assays:
[1] = target: SNAP-25 peptide comprising amino acids 134-197 of SEQ ID NO: 5 (human); test: SPR, BIAcore 3000, peptide on CM5 chip, antibody as analyte, 1:1 model
[2] = target: SNAP-25 peptide comprising amino acids 134-206 of SEQ ID NO: 5 (human); test: as above

| Kd [1] [nM] | koff [1] [s⁻¹] | kon [1] [M⁻¹ s⁻¹] | Kd [2] [nM] | koff [2] [s⁻¹] | kon [2] [M⁻¹ s⁻¹] | Substance |
| --- | --- | --- | --- | --- | --- | --- |
| 0.497 | 0.000882 | 1.78e+06 | 19800 | 0.00607 | 306 | mouse α-SNAP-25 monoclonal antibody MC-6050 (Research & Diagnostic Antibodies) |
| 0.508 | 0.00118 | 2.32e+06 | 240 | 2.56e-05 |  | mouse α-SNAP-25 monoclonal antibody MC-6053 (Research & Diagnostic Antibodies) |
